Assay [1] has as its target tumor-associated glycoprotein TAG-72 (human). As to the kind of experiment: ELISA on TAG-72-coated plates (FIGS. 7 and 8). In general terms: In an ELISA, binding on a coated surface is turned into a signal by an enzyme label.
For assay [2] the target is unchanged. The assay can be described thus: TAG-72-coated plate assay with 125I goat anti-human IgG probe, Scatchard analysis; mean of 8 analyses.

In assay [1], “humanized CC49 antibody CC49 HuVH/HuVK (ATCC CRL-12209)” showed a fold less binding than the chimeric MuVH/MuVK antibody of 2 fold. This substance showed a Ka in assay [2] of 4.27e+09 M⁻¹.
